# Measurements reported in patent US20140044730A1 (Regeneron, published 2014).
# Positions count from the first letter of the chain named.
# B1: VH-D106H (antibody, V domains shown)
# VH: EMQLVESGGGLVQPGGSLRLSCAASGFTFSSHWMKWVRQAPGKGLEWVANINQDGSEKYYVDSVKGRFTISRDNAKNSLFLQMNSLRAEDTAVYYCARDIVLMVYHMDYYYYGMDVWGQGTTVTVSS
# VL: not shown
# notes: His variant of 300N
# B2: VH-M114H (antibody, V domains shown)
# VH: B1 VH with H106D, M114H
# VL: not shown
# notes: His variant of 300N
# What was measured:
# [1] = biological target: T1, human PCSK9 with a C-terminal myc-myc-hexahistidine tag (human, UniProt Q8NBP7 31-692, limits assumed); assay: SPR 25C, mAb captured;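 note: biacore CM4 surface bearing anti-human Fc antibody capturing the mAbs, PCSK9 binding and release rates fitted with a one-to-one model, KD and half-life derived from those rates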
# T1 construct: also called hPCSK9-mmH; hPCSK9-mmh; not shown: C-terminal myc-myc-hexahistidine tag
# [2] = biological target: human PCSK9 with a C-terminal myc-myc hexahistidine tag and a D374Y mutation (human, UniProt Q8NBP7 31-692, limits assumed); assay: cell-based or functional assay
# [3] = biological target: recombinant cynomolgus monkey PCSK9 with a C-terminal myc-myc hexahistidine tag (cynomolgus monkey, UniProt A8T662 31-692 (Macaca nemestrina entry), limits assumed); assay: cell-based or functional assay
# [4] = biological target: T1, human PCSK9 with a C-terminal …; assay: cell-based or functional assay
# [5] = biological target: T1, human PCSK9 with a C-terminal …; assay: SPR 25C pH 7.2, mAb captured;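 note: biacore SPR, antibodies captured on anti-human Fc CM4 chip with PCSK9 flowed as analyte, rate constants from a one-to-one kinetic fit, KD and half-life derived from them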
# Method: (§1) A Biacore CM4 sensor chip was derivatized with a monoclonal mouse anti-human Fc antibody to capture human antibodies. The histidine substitution variant anti-PCSK9 antibodies were captured onto the anti-human Fc sensor surface from culture medium after transient expression in Chinese hamster ovary (CHO) cells. […] Kinetic association (kₐ) and dissociation (kd) rate constants were determined by processing and fitting the data to a 1:1 binding model using Scrubber 2.0 curve fitting software. Binding dissociation equilibrium constants (KD) and dissociative half-lives (t_{1/2}) were calculated from the kinetic rate constants as: KD (M)=kd/kₐ; and t_{1/2} (min)=(In2/(60*kd).
# [6] = biological target: T1, human PCSK9 with a C-terminal …; assay: SPR 25C pH 5.75, mAb captured;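 note: biacore surface with anti-human Fc antibody capturing the antibodies, PCSK9 as analyte, one-to-one kinetic fit, KD as kd over ka, half-life derived from kd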
# [7] = biological target: T1, human PCSK9 with a C-terminal …; assay: SPR 25C, purified mAb captured
# Method: as §1
# (§2) Also included in these experiments were several control/comparator antibodies. All measurements were taken at 25° C.
# [8] = biological target: T1, human PCSK9 with a C-terminal …; assay: SPR 25C pH 7.4, purified mAb captured
# [9] = biological target: T1, human PCSK9 with a C-terminal …; assay: SPR 25C pH 6.0, purified mAb captured
# Method: as §1, §2
# [10] = biological target: T1, human PCSK9 with a C-terminal …; assay: SPR 25C pH 7.2, mAb captured; pH 7.2, 25 C;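 for t½: biacore SPR, antibodies captured on anti-human Fc CM4 chip with PCSK9 flowed as analyte, rate constants from a one-to-one kinetic fit, KD and half-life derived from them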
# Method: as §1
# [11] = biological target: T1, human PCSK9 with a C-terminal …; assay: blocking ELISA, hPCSK9-mmH vs coated hLDLR EGFA-hFc
# Method: (§3) Briefly, hLDLR EGFA-hFc was coated at 2 μg/mL in PBS on a 96-well microtiter plate overnight at 4° C. followed by blocking with a solution of 0.5% (w/v) BSA in PBS.
# (§4) The equilibrated sample solutions were then transferred to a LDLR EGFA-hFc coated plate.
# [12] = biological target: T1, human PCSK9 with a C-terminal …; assay: blocking ELISA pH 7.2, 500 pM hPCSK9-mmH vs coated hLDLR EGFA-hFc
# Method: as §3, §4
# [13] = biological target: T1, human PCSK9 with a C-terminal …; assay: blocking ELISA pH 5.75, 500 pM hPCSK9-mmH vs coated hLDLR EGFA-hFc
# Method: as §3, §4
# [14] = biological target: T1, human PCSK9 with a C-terminal …; assay: blocking ELISA pH 7.2, 500 pM hPCSK9-mmH vs coated hLDLR EGFA-hFc, exp #1
# From the text: (§5) The equilibrated sample solutions were then transferred to the LDLR EGFA-hFc coated plate prepared as described above.
# [15] = biological target: T1, human PCSK9 with a C-terminal …; assay: blocking ELISA pH 7.2, 500 pM hPCSK9-mmH vs coated hLDLR EGFA-hFc, exp #2
# From the text: as §5
# [16] = biological target: T1, human PCSK9 with a C-terminal …; assay: SPR (Biacore), 37 °C; antibody captured on anti-human Fc surface, hPCSK9-mmH injected (3.125-50 nM); association at pH 7.4, dissociation at pH 6.0
# Method: (§6) All experiments were carried out at 37° C.
# (§7) A Biacore CM4 sensor chip was derivatized with a Fab′2 polyclonal anti-human Fc antibody to capture human antibodies. […] Dissociation (kd) rate constants were determined by processing and fitting the data using Scrubber version 2.0 curve fitting software. Dissociative half-lives (t_{1/2}) were calculated from the dissociation rate constants as: t_{1/2} (min)=(In2/kd)/60.
# [17] = biological target: T1, human PCSK9 with a C-terminal …; assay: SPR (Biacore), 37 °C; antibody captured on anti-human Fc surface, hPCSK9-mmH injected (3.125-50 nM); association at pH 7.4, dissociation at pH 7.2
# Method: as §7
# [18] = biological target: T1, human PCSK9 with a C-terminal …; assay: SPR (Biacore), 37 °C; antibody captured on anti-human Fc surface, hPCSK9-mmH injected (3.125-50 nM); association at pH 7.4, dissociation at pH 7.4
# Method: as §6, §7
# [19] = biological target: T1, human PCSK9 with a C-terminal …; assay: SPR (Biacore), 37 °C; antibody captured on anti-human Fc surface, hPCSK9-mmH injected (3.125-50 nM); association at pH 7.4, dissociation at pH 5.75
# Method: as §6, §7
# [20] = biological target: T1, human PCSK9 with a C-terminal …; assay: SPR 25C pH 7.2, mAb captured; pH 7.2 (neutral), 25 C
# Method: as §1
binder,measurement,setting,value
B1,KD ratio pH 5.75/pH 7.2,[1],4.34
same,t½ ratio pH 5.75/pH 7.2,[1],0.1
same,"IC50, LDL uptake in HepG2 cells, 2 nM hPCSK9-D374Y-mmH",[2],2.7 nM
same,"IC50, LDL uptake in HepG2 cells, 50 nM MfPCSK9-mmH",[3],12.7 nM
same,"IC50, LDL uptake in HepG2 cells, 100 nM hPCSK9-mmH",[4],32 nM
same,t½,[5],35 min
same,Kd,[6],9.59 nM
same,t½,[6],3.4 min
same,KD ratio pH 6.0/pH 7.4,[7],6.64
same,ka ratio pH 6.0/pH 7.4,[7],1.26
same,kd ratio pH 6.0/pH 7.4,[7],8.35
same,t½ ratio pH 6.0/pH 7.4,[7],0.12
same,Kd,[8],1.06 nM
same,koff,[8],8.98e-05 s⁻¹
same,kon,[8],84700 M⁻¹ s⁻¹
same,t½,[8],129 min
same,Kd,[9],7.04 nM
same,koff,[9],0.00075 s⁻¹
same,kon,[9],107000 M⁻¹ s⁻¹
same,t½,[9],15.4 min
same,Kd,[10],2.21 nM
same,IC50 ratio (pH 5.75/pH 7.2),[11],5.5
same,IC50,[12],0.319 nM
same,IC50,[13],1.75 nM
same,IC50,[14],0.349 nM
same,IC50,[15],0.395 nM
same,t½ (dissociative half-life),[16],3.5 min
same,t½ (dissociative half-life),[17],42 min
same,t½ (dissociative half-life),[18],36 min
same,t½ (dissociative half-life),[19],2.8 min
B2,Kd,[20],386 nM
same,t½,[20],0 min
